Results on two molecules are retold here after patent US20050238685A1 (published 2005).

Assay [1] concerns the target BSA (bovine serum albumin) (bovine, UniProt P02769 25-607). Nature of the assay: protein on hydrophobin-coated TEFLON sheets, rinsed; TFA extraction and SDS-PAGE.
Description: BSA (bovine serum albumin) and fibronectin were immobilized on coated TEFLON™ sheets. […] The sheets were removed from the hydrophobin solution and were immediately washed with large amounts of water to remove any unbound hydrophobin. […] The presence of BSA or fibronectin on bare and coated TEFLON™ was detected extracting all protein with TFA, evaporating the TFA and loading the sample on SDS-PAGE and staining according to standard procedures.
In assay [2] the target is T1, bovine pancreas trypsin (bovine, UniProt P00760 24-246).
T1 construct: Bought enzyme; also called 25 kD trypsin (bovine pancreas)
Nature of the assay: enzyme on SC3-coated TEFLON, rinsed; activity by spectrophotometry, constant after removal of the surface.
Protocol: The surface was first coated with SC3 hydrophobin by immersion in the protein aqueous solution (0.3 mg/mL) during approximately 30 minutes. The obtained modified surface was then immersed in an aqueous enzyme solution during approximately 30 minutes. After each step, the TEFLON™ surface was rinsed with an adequate buffer solution. […] The functionalized TEFLON® was stored at 4° C. in an Eppendorf tube containing a buffer solution.

The target in assay [3] is T1, bovine pancreas trypsin. Nature of the assay: enzyme on hydrophobin-coated sheets, washed; chromogenic assay.

T1 sequence (P00760 24-246): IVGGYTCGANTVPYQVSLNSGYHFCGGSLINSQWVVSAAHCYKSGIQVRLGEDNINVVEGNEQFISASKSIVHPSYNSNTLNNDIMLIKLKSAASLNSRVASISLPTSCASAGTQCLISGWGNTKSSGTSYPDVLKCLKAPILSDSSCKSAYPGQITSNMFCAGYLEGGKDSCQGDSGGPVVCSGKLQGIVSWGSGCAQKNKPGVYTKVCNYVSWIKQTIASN
BSA (bovine serum albumin), sequence (P02769 25-607 limits assumed): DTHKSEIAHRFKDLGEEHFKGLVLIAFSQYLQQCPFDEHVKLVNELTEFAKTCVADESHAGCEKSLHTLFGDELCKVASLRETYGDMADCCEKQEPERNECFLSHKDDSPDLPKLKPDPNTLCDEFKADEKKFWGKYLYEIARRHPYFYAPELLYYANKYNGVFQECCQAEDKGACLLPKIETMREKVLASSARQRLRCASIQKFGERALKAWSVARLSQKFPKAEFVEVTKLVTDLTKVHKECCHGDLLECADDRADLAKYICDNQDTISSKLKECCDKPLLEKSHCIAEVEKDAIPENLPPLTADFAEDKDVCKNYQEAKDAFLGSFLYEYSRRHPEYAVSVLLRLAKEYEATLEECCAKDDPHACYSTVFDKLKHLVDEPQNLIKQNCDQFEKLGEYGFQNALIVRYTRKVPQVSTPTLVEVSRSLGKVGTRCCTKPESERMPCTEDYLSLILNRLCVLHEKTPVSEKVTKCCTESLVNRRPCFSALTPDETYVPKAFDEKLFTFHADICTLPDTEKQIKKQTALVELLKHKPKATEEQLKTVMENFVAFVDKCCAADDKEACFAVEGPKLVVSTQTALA

B1: SC3 hydrophobin of Schizophyllum commune (other, UniProt P16933 25-136, looked up)
chain: GGHPGTTTPPVTTTVTVTTPPSTTTIAAGGTCTTGSLSCCNQVQSASSSPVTALLGLLGIVLSDLNVLVGISCSPLTVIGVGGSGCSAQTVCCENTQFNGLINIGCTPINIL
notes: Used as a self-assembled film (alpha-helix state or beta-sheet state) coated on TEFLON, polyethylene, glass, microtiter wells or oil droplets; Natural SC3 is glycosylated (mannose) at its N-terminal side; also called hydrophobin SC3
On to B1, for which the binding result (in assay [1]; with bovine pancreas trypsin [2]) was “binds” in each case.

B2: SC4 hydrophobin of Schizophyllum commune (other)
chain: AGQACNSGPVQCCNETTTVANAQKQGLLGGLLGVVVGPITGLVGLNCSPISVVGVLTGNSCTAQTVCCDHVTQNGLVNVGCTPISL
B2: the binding result in the assay with bovine pancreas trypsin [3] was “binds”.
